# Measured values taken from article PMC7407080, “Methylglyoxal Detoxification Revisited: Role of Glutathione Transferase in Model Cyanobacterium Synechocystis sp. Strain PCC 6803” (mBio, 2020).
# T1: Sll0067 GST (Synechocystis sp. PCC 6803, UniProt Q55139)
# T1 sequence (Q55139 1-184): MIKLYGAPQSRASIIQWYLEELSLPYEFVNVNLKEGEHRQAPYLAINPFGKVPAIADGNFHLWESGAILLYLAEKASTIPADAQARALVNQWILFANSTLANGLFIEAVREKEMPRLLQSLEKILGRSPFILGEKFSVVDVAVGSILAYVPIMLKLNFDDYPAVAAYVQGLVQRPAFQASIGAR
# B1: Sll0067 GST (Synechocystis sp. PCC 6803 substr. Kazusa) (protein)
# chain: MIKLYGAPQSRASIIQWYLEELSLPYEFVNVNLKEGEHRQAPYLAINPFGKVPAIADGNFHLWESGAILLYLAEKASTIPADAQARALVNQWILFANSTLANGLFIEAVREKEMPRLLQSLEKILGRSPFILGEKFSVVDVAVGSILAYVPIMLKLNFDDYPAVAAYVQGLVQRPAFQASIGAR
# Tests used:
# Sll0067 GST [1] = target: T1, Sll0067 GST; test: initial velocity of GSH-MG conjugation with added S-lactoylGSH; assay type: biochemical; conditions: activator; co-substrates GSH and MG
# [2] = target: Sll0067 glutathione transferase (GST) of Synechocystis sp. strain PCC 6803, His-tagged recombinant protein (Synechocystis sp. strain PCC 6803); test: SEC-MALS; 300 ug of purified protein in 300 ul injected at 0.5 ml/min on an analytical Superdex 200 10/300 column, 30 mM Tris-HCl pH 8.0, 200 mM NaCl; miniDAWN TREOS detector and T-rEX refractometer
# Sll0067 GST [3] = target: T1, Sll0067 GST; test: absorbance at […] nm, GSH conjugation, Michaelis-Menten fit; assay type: biochemical; conditions: 1 mM GSH; 30 mM Tris-HCl pH 8.0, 1 mM EDTA; 25°C; read-out: affinity (apparent Km)
# [4] = substrate: CC(=O)C=O; test: two-substrate steady-state kinetics, remaining MG by DDP fluorescence; secondary plot, allosteric sigmoidal fit; assay type: biochemical, Synechocystis sp. PCC 6803; conditions: varied GSH, 100 mM potassium phosphate, 1 mM EDTA, pH 7.5, 30°C, Hill number 1.873 ± 0.261
# Text: two-substrate steady-state kinetics, remaining MG by DDP fluorescence; secondary plot, allosteric sigmoidal fit on Sll0067 GST
# purified protein [5] = substrate: S=C=NCc1ccccc1; test: purified protein; assay type: biochemical, Synechocystis sp. PCC 6803; conditions: 1 mM GSH, 100 mM phosphate pH 6.5, 25°C
# purified protein [6] = substrate: S=C=NCCc1ccccc1; test: purified protein; assay type: biochemical, Synechocystis sp. PCC 6803; conditions: 1 mM GSH, 100 mM phosphate pH 6.5, 25°C
molecule,measurement,setting,value
C[C@@H](O)C(=O)SC[C@H](NC(=O)CC[C@H](N)C(=O)O)C(=O)NCC(=O)O [S-D-lactoylglutathione],initial velocity of GSH-MG conjugation with added S-lactoylGSH,Sll0067 GST [1],All measured initial velocities of Sll0067 activity were increased by S-lactoylGSH
"Sll0067 glutathione transferase (GST) of Synechocystis sp. strain PCC 6803, His-tagged recombinant protein (enzyme)",stoichiometry N,[2],2
"O=[N+]([O-])c1ccc(Cl)c([N+](=O)[O-])c1 [1-chloro-2,4-dinitrobenzene]",Km,Sll0067 GST [3],3800 µM
B1,K0.5,[4],221.7 ± 26.3 µM
same,Km,purified protein [5],82.0 µM
same,Km,purified protein [6],31.4 µM
